The text below walks through data of the DeepSol protein solubility set.

This series can be described thus: soluble on expression in E. coli; label from the status in PepcDB or PDB records.
Turning to “MAKTPVLLDRWGKPVKRAVLTEEISAATLGSVRSPITGYPADGLNPVRLASILREADAGDPVRYLELAETIEERDLHYLGVLGTRRRSVSQLDITVEAASDDPRDVEIADMIRDWLTRDELSDELFHMLDCIGKGYSFTEIIWDTSEGQWRPARLEWRDPRWFRFDRAALTTPLMLGPHGEELELTPFKFIFAEVKAKSGIALRSGLARAAAWAWMFKAFTQRDWAIFTQTYGQPLRLGRYGPGASEDDKATLFRAVANIAGDCAAIIPESMAIDFVETKSVGATADLYKQRADWLDQQISKAVLGQTATTDAVTGGLGSGKEHRQVQEDIERADAKALSGILNRDLIRPWVDLEYGPQARYPRLKIARPEPEDLKAMAEALAALVPIGLRVSQKKTRDRFGFDEPENDADVMGGTPAAAAVAAPPGADRPIKRFSGVFKGGEPPARPETALQAEAAPAALPASDDPAALLADRLAADAAPAMGAMIERVETMLAAAGSLAEFREMLLAGFPGIDAGDLATLMAQAMMAAHAGGRAAAEDAGA”, the “soluble on expression in E. coli” value was “not soluble”.

For the sequence “MYHGMNPSNGDGFLEQQQQQQQPQSPQRLLAVILWFQLALCFGPAQLTGGFDDLQVCADPGIPENGFRTPSGGVFFEGSVARFHCQDGFKLKGATKRLCLKHFNGTLGWIPSDNSICVQEDCRIPQIEDAEIHNKTYRHGEKLIITCHEGFKIRYPDLHNMVSLCRDDGTWNNLPICQGCLRPLASSNGYVNISELQTSFPVGTVISYRCFPGFKLDGSAYLECLQNLIWSSSPPRCLALEGGRPEHLFPVLYFPHIRLAAAVLYFCPVLKSSPTPAPTCSSTSTTTSLF”, the “soluble on expression in E. coli” value is “soluble”.

In the case of “MTVGVGGSTPAQALERLRNMMDGAQPIGLASYRARIAAAQAWMGEHGIAAAYLHAGSNLRYFSGVQWHPSERLVGALLPAEGALEYLAPAFEEGTVRDFQVVDGAIHTWEEHQDPYRLLLDRLEALGVGERSTVALCPSLPFGMFERLRQQAPGRNFVSAAPLIDQGRMRKSAEELALMQRAKDMTLEVQKAAASILREGISTTEVAEFIHQAHRKVGAPGSTFCIVLFGAASAFPHGVKHAQVLKDGDMVLIDTGCQVHGYQSDITRSYVFGTPSARQREFWGMERDAQLAAFEAARLGQPCEAVDAAARRSLEANGLGPDYRLPGLPHRTGHGIGMDVHEGPYLVRGDRTPLDVGMCFSNEPMICVPGEFGIRLEDHFYMTKEGPRWFT”, the “soluble on expression in E. coli” value was “not soluble”.

Take “MGSDKIHHHHHHMRILEINTEKGWRGGENQTLLALIGFRKLGHEAELLCFENSALHVQAAAAGFTCHPLTSSTKSIGFLMEYGKNYSILHTQTSKQLTYCILTKPFHNSKVILSRRVDFVPKGFFTLLKYNACDGIICVSGAIEKILKQSGIKTRTVVISDCVTEKTLNKTRAQELLQKLTISGKNIIGTTAALVPHKDPVTLVNAVNILRTKRSDFVLLHFGSGPLAATIQQFITDNNLQDYYKLIGFKERVEDYFSIFNYFVMSSQEEGLGSSVLDAFVYKVPVVSTNAGGLNELVTGRGYVTEKKNAQLLAEALHTAMNSPEQNKKNVAAGYTYAVSNLSVEKIHEEHIDFFKTV”: the “soluble on expression in E. coli” value is “not soluble”.

Turning to “RPAVFPRMGVLPARVALLGQGQHWGVDFCLNVFRANFAEDREIQSEDVVRDLLRAQDLDADALIAQARQESTKEALRKQVDRARALGIFGAPTFMVDGEMFWGNDRLED”, the “soluble on expression in E. coli” value was “not soluble”.

For “GHMIQESTMEMTNAQRLILSNQYKMMTMLDPANAERYRRLQTIIERGYGLQMRELDREFGELKEETCRTIIDIMEMYHALHVSWSNLQDQQSIDERRVTFLGFDAATEARYLGYVRFMVNVEGRYTHFDAGTHGFNAQTPMWEKYQRMLNVWHACPRQYHLSANEINQIINA”, the “soluble on expression in E. coli” value is listed as “soluble”.

Take “MASRRKRRKVNEESEIPCSPVVIFAHGAGAPSSSDWMIRWKEMLKKTLEAVEVVTFDYPYLADGKKRVAPKAEKLIEFHLNVVKETAAKFPGHPLILVGKSMGSRVSCMVSAVNEDVTVSAVICLGYPLKGAKGAIRDETLLEMGVPVMFVQGSKDPMCPLNKLEAVCNKMKAVTEVHVIDGGDHSFKIGKKHLETKELTQEEVEDVAMKAIAAFVSKSLAQSS”: the “soluble on expression in E. coli” value is recorded as “soluble”.

Consider “SLRQIRTVIQYQTVRYDILPLSPVSRNRLAQVKRKILVLDLDETLIHSHHDGVLRPTVRPGTPPDFILKVVIDKHPVRFFVHKRPHVDFFLEVVSQWYELVVFTASMEIYGSAVADKLDNSRSILKRRYYRQHCTLELGSYIKDLSVVHSDLSSIVILDNSPGAYRSHPDNAIPIKSWFSDPSDTALLNLLPMLDALRFTADVRSVLSRNLHQHRLW”, for which the “soluble on expression in E. coli” value is “soluble”.

As to “MAHHHHHHMAPMSSSGIRGLSLRSVRETVHCATTQTTSAPPPPANCQQHQLLNTTEDKCNAIFAEVELLSKWLQHAVESRAHVEREAYALLQQADVKIQHLEDTVRQKEMELLYMRGAMESLRTRVEFYECRERRIEGDDDDANFPLRREADFKGAAVRKVVIMGENNTNDSYCSNRMGRGNGVMSPADFTVDSTEQLNAGKCVDLGTTATTCNSNGVDNASVSSPAETGVGGRSRVGHSALSWVRYLLERCVSNSGKDGASEGAASMKKKGEGNDQLADALTMLTTLQCQYADPNGDLVMMNSLCTKFSNSIVAVAEELNTALQIPLKRASNTTDSLQISQAAKVVEHPESAAEALPSSNQEPIMQCRKSVVEENLQLLQSLMAVESSSREAWSTLQKY”, the “soluble on expression in E. coli” value is listed as “not soluble”.

On to “SRVQILKDFVKQHFPATPLLDYALEVEKITTSKKPNLILNVDGFIGVAFVDMLRNCGSFTREEADEYVDIGALNGIFVLGRSMGFIGHYLDQKRLKQGLYRHPWDDISYVLPEHMSM”, for which the “soluble on expression in E. coli” value was “soluble”.

“MHHHHHHSSGVDLGTENLYFQSMIAKSFYDLSAINLDGEKVDFNTFRGRAVLIENVASLCGTTTRDFTQLNELQCRFPRRLVVLGFPCNQFGHQENCQNEEILNSLKYVRPGGGYQPTFTLVQKCEVNGQNEHPVFAYLKDKLPYPYDDPFSLMTDPKLIIWSPVRRSDVAWNFEKFLIGPEGEPFRRYSRTFPTINIEPDIKRLLKV”: the “soluble on expression in E. coli” value is “soluble”.

In the case of “MGSDKIHHHHHHMTIETIKRIIEEENVRFIRLQFTDINGTLKNLEITPDVFLESWEDGIMFDGSSIEGFVRIEESDMYLKPVLDTFAVLPWTVDGAKSARVICDVYTPDGKPFEGDPRYRLRRMMEKAEQLGYTPYAGPEMEFFILPINEKGEPVPEFLDHGGYFDLLPLSKVEEIRRDIAIALEKMGITVEATHHEVAPSQHEVDFRYDTFLRTADNAQTVKLVIKTMAIFHGYHATFMPKPFYGVNGSGMHVHMSLFRGDKNAFYDPDDPLGLSKELRYFVGGILKHAKALAAVTNPTINSYKRLVPGYEAPVYISWSVGNRSALIRIPKARGKATRLEYRSPDPSCNIYLAFAAILAAGLDGIINKIEPPAPVEENIYHMTSERREELNIESLPGSLKEAVEELKKDDVIIDALGEHIFEKFVEAAEKDWKEFSTYVTNWELQRYLYL”, the “soluble on expression in E. coli” value is on record as “not soluble”.

In the case of “MEFYGPITGEKFAFLLFRDNGEVIEFNHWSQVKEYKSELKISKSSIQIFLRNGCVYPPYTIYSNVLMLPIGTKLTIDIKNDIFKWENNFCFLDRHSKQDSKPSTSKLKTLIANSFAHLKKEVKPIYMMQSAGKDSTAMLLGLHEQGIQNVHCVTYEANFRDTESDAAKKIAESLGFEHTILFPNYEAEFDALLEYQENAVSITGDFSMLPYIAANKSVFKSDSLVIDGLGNDLYMGYVSNKLERSIMKCSLGNFSYLEPSKFTSNEVINYAISSIFMKPYERLFPGTRLSSSEIENFTDNKFIDDDAIYFSKQYNNLDKDDFRAAIRARFCDSTMFQMKAELTTNSFGNEVYFPFSNKELVDYYFNLPIEERYDKANSCNKTLLRSMLNEYVEVDDFFKVKSGFRYNMPEFITINKEKIKKEIIECDLLEQDYSNRFFAKHLDVQKVNYTSACKAYILLVFASWRNRNKLAVVDGHVADKFDWY”, the “soluble on expression in E. coli” value is “not soluble”.

In the case of “MSLQYESHSQLIIKSSDGGSSFDPSSLLMAAGVSGASGGTESQLVEAYIQSADMIKYLDETIGLREHYMSDKADMFSGLSSSHKQEDFYKFYLDHIEVSVDSASSVISLRTRAFDAEYAKIINQAIVDKAEEFINNINNDLAKSKLTFAKGEHEIVEQKLQQAKTEILSFQSKYNVLDPSAEGAAFQQIAFSLQATLAQKKAELSTMSTMMSNVAPEVINIKREIAALQKEVEKQKERISTAEGESEALSVSELMAQYSNLQVQLQLAIQAYSSSLITLENARVEAYQKLQHLVTVESPTLPDDNAYPTEGHHHHHH”, the “soluble on expression in E. coli” value is recorded as “soluble”.

On to “MDREQVVALQHQRFAAKKYDPNRRISQKDWEALVEVGRLAPSSIGLEPWKMLLLKNERMKEDLKPMAWGALFGLEGASHFVIYLARKGVTYDSDYVKKVMHEVKKRDYDTNSRFAQIIKNFQENDMKLNSERSLFDWASKQTYIQMANMMMAAAMLGIDSCPIEGYDQEKVEAYLEEKGYLNTAEFGVSVMACFGYRNQEITPKTRWKTEVIYEVIE”, for which the “soluble on expression in E. coli” value is given as “soluble”.

As to “MILTTSRKPSQRTRSFARDLERTLNIPYVQRGKLSLKEIFEIDKHVLLIGEFKANPGTLVVYDVENEKRLSSFISVKLQREICGEKIYNDDGIRIKISRELKDNEEFQKYYEIYDEFLFQHLNINEDSDITLRLEKDPKYLFAIQFYKGRVKIGPLIRIKSIKLFDSLLLEHHHHHH”, the “soluble on expression in E. coli” value was “soluble”.

Regarding “GPGSMLARGCVLRWHAVSARRVLGLHDGQSYTPADIKKAFRERALTAHPDAGGDADGFRQLQRAYEVLLHEHSVGKKGSEAAAASDDSEGGSGFYAHPHAEWCNDMRSQRAYWRDMYTEMNMNPNSCGSHRHASNTHYQARQHYRTYGEGLGEDFQKEFKSSSFAGGGQRGSQMNFSTWYFYRPYYSNYRNPFGTGFTPEEIRRAEQEQRRGFARAVARHACLWSGLAFVVYLHERNNRVWRAVEARDKGYKDPEYWEQLRKDEEEARRRSRAPLRLEQHWLDAPLMRSLMDLTEGGHSGGCGKNGQDAEDNISGAARAGTAWATQQARMAQERRRQAMSSTRGMRRGASGDVGGPRVVSYQGRPFTPNGVRGMRNTAPKTPKTYADDVTYEMDDDDDV”, the “soluble on expression in E. coli” value is “not soluble”.

For the sequence “MAYFFKNLVFEGGGVKGIAYIGALEVLQEEKIFPKIKRVAGTSAGAIMAVLIGLGYTPSEIKEIMWCLNFKNFMDDSWGIIQDTKRLIEKFGWYKGDFFRNWLGDLIKAKTGNSESTFADLAAMKGENKFLDISLIGTNLSTGFSEIFSAEHTPRICIADAARISMSIPLFFAAKRNFRNDVYVDGGMLNNYPVKVFDRTKYVTKNFTRTGYYEPINKKLEKRPRKIADYVYNKETLGFRLDSKEKIAFFRDNAEPPHRDIDSFFDYTVSLFGTLLSAQDDVHLHSDDWQRTIYIDTLGVKTTDFAISDAQKKALLESGRSYTQSYLEWYNNSEEKVNK”, the “soluble on expression in E. coli” value was “not soluble”.

As to “MTNPTRTKRCGGDVLCGIDNHFQLLLYISENHCQLETKTFFEYFLRIVNKTHDYAILENKKICISHLEHHHHHH”, the “soluble on expression in E. coli” value is recorded as “not soluble”.

As for “FFFTVAFLLVFSIAGLVEILPDFAKASRPTENLKPYSMLETAGRQLYIKESCNACHSQLVRPFKSETDRYGAYSLSGEYAYDRPFLWGSKRTGPDLHRVGDYRTTDWHENHMMDPTSVVPGSIMPAYKHMFKNAADIETAYAEAYTNKVVFGVPYDQPSGIKLGSFEEAKAAMFEEAKLIVEDMKNQDVKDALARGEIKEIVALIAYMNSLGQ”, the “soluble on expression in E. coli” value was “not soluble”.

For the sequence “MSKISQQNSTPGVNGISVIHTQAHASGLQQVPQLVPAGPGGGGKAVAPSKQSKKSSPMDRNSDEYRQRRERNNMAVKKSRLKSKQKAQDTLQRVNQLKEENERLEAKIKLLTKELSVLKDLFLEHAHNLADNVQSISTENTTADGDNAGQ”, the “soluble on expression in E. coli” value was “soluble”.
